Experimental data published in patent US20240150495A1.

T1: synthetic peptide Rp10-L, a mimotope of B-cell molecular marker CD20
T1 sequence (peptide): ITPWPHWLERSS


Assays:
[1] = target: T1, synthetic peptide Rp10-L, a mimotope of B-cell molecular marker CD20; test: ELISA, periplasmic extract, Rp10-L 6.25 µg/ml; well without peptide 0.265
[2] = target: T1, synthetic peptide Rp10-L, a mimotope of B-cell molecular marker CD20; test: ELISA, periplasmic lysate on coated Rp10-L, single well; plate A background 0.027
[3] = target: T1, synthetic peptide Rp10-L, a mimotope of B-cell molecular marker CD20; test: ELISA, periplasmic extract, Rp10-L 12.5 µg/ml; well without peptide 0.265
[4] = target: T1, synthetic peptide Rp10-L, a mimotope of B-cell molecular marker CD20; test: ELISA, periplasmic extract, Rp10-L 0.81 µg/ml; well without peptide 0.265
[5] = target: T1, synthetic peptide Rp10-L, a mimotope of B-cell molecular marker CD20; test: ELISA, periplasmic extract, Rp10-L 25.0 µg/ml; well without peptide 0.265
[6] = target: T1, synthetic peptide Rp10-L, a mimotope of B-cell molecular marker CD20; test: ELISA, periplasmic extract, Rp10-L 1.63 µg/ml; well without peptide 0.265
[7] = target: T1, synthetic peptide Rp10-L, a mimotope of B-cell molecular marker CD20; test: ELISA, periplasmic extract, Rp10-L 3.13 µg/ml; well without peptide 0.265
[8] = target: T1, synthetic peptide Rp10-L, a mimotope of B-cell molecular marker CD20; test: ELISA, periplasmic extract, Rp10-L 50.0 µg/ml; well without peptide 0.265
[9] = target: T1, synthetic peptide Rp10-L, a mimotope of B-cell molecular marker CD20; test: ELISA, periplasmic extract, Rp10-L 6.25 µg/ml; well without peptide 0.469
[10] = target: T1, synthetic peptide Rp10-L, a mimotope of B-cell molecular marker CD20; test: ELISA, periplasmic extract, Rp10-L 50.0 µg/ml; well without peptide 0.469
[11] = target: T1, synthetic peptide Rp10-L, a mimotope of B-cell molecular marker CD20; test: ELISA, periplasmic extract, Rp10-L 0.81 µg/ml; well without peptide 0.469
[12] = target: T1, synthetic peptide Rp10-L, a mimotope of B-cell molecular marker CD20; test: ELISA, periplasmic lysate on coated Rp10-L, single well; plate D background 0.035
[13] = target: T1, synthetic peptide Rp10-L, a mimotope of B-cell molecular marker CD20; test: ELISA, periplasmic extract, Rp10-L 1.63 µg/ml; well without peptide 0.469
[14] = target: T1, synthetic peptide Rp10-L, a mimotope of B-cell molecular marker CD20; test: ELISA, periplasmic extract, Rp10-L 12.5 µg/ml; well without peptide 0.469
[15] = target: T1, synthetic peptide Rp10-L, a mimotope of B-cell molecular marker CD20; test: ELISA, periplasmic extract, Rp10-L 25.0 µg/ml; well without peptide 0.469
[16] = target: T1, synthetic peptide Rp10-L, a mimotope of B-cell molecular marker CD20; test: ELISA, periplasmic extract, Rp10-L 3.13 µg/ml; well without peptide 0.469

ELISA absorbance [1]	A492/620 [2] [A492/620]	ELISA absorbance [3]	ELISA absorbance [4]	ELISA absorbance [5]	ELISA absorbance [6]	ELISA absorbance [7]	ELISA absorbance [8]	ELISA absorbance [9]	ELISA absorbance [10]	ELISA absorbance [11]	A492/620 [12] [A492/620]	ELISA absorbance [13]	ELISA absorbance [14]	ELISA absorbance [15]	ELISA absorbance [16]	Binder
0.343	0.395	0.315	0.362	0.335	0.383	0.352	0.398									CH3 clone A21 (mutated human IgG1 CH3 domain, CH3+3 library) (designed binder, not shown: small tags and cut ends) MAPREPQVYTLPPSRDELVDGQVSLTCLVKGFYPSDIAVEWESNGQPENNYKTTPPVLDSDGSFFLYSKLTVPWGPRDRWWPGNVFSCSVMHEALHNHYTQKSLSLSPGKAAA
								0.694	0.765	0.66	0.448	0.719	0.77	0.868	0.719	CH3 clone D39 (mutated human IgG1 CH3 domain, CH3+3 library) (designed binder, not shown: small tags and cut ends) MAPREPQVYTLPPSRDELGWWQVSLTCLVKGFYPSDIAVEWESNGQPENNYKTTPPVLDSDGSFFLYSKLTVQQKPFARWTDGNVFSCSVMHEALHNHYTQKSLSLSPGKAAA
